From patent US20110318339A1 (FABRUS, published 2011)
Where a chain is given by its changes, count along the chain named. Numbers in names are those of the source.

B1: Fab VH1-46_IGHD6-6*01_IGHJ1*01 S102A/S103P/S104F/H111F & L6_IGKJ1*01 (Fab, V domains shown)
VH: QVQLVQSGAEVKKPGASVKVSCKASGYTFTSYYMHWVRQAPGQGLEWMGIINPSGGSTSYAQKFQGRVTMTRDTSTSTVYMELSSLRSEDTAVYYCAREEYAPFSAEYFQFWGQGTLVTVSS
VL: not shown
notes: Fab made in E. coli: VH on CH1 with His6 and Flag tags (Plasmid A), VL on kappa CL (Plasmid C); also called H: APFF & L: wt
B2: Fab VH1-46_IGHD6-6*01_IGHJ1*01 S102A/S103P/S104F/H111F G56A & L6_IGKJ1*01 (Fab, V domains shown)
VH: B1 VH with G56A
VL: not shown
notes: Fab made in E. coli: VH on CH1 with His6 and Flag tags (Plasmid A), VL on kappa CL (Plasmid C); also called H: APFF G56A & L: wt
B3: Fab VH1-46_IGHD6-6*01_IGHJ1*01 S102A/S103P/S104F/H111F G56A & L6_IGKJ1*01 S28N/S30D/S31H (Fab, V domains shown)
VH: B1 VH with G56A
VL: EIVLTQSPATLSLSPGERATLSCRASQNVDHYLAWYQQKPGQAPRLLIYDASNRATGIPARFSGSGSGTDFTLTISSLEPEDFAVYYCQQRSNWPPWTFGQGTKVEIKR
notes: Fab made in E. coli: VH on CH1 with His6 and Flag tags (Plasmid A), VL on kappa CL (Plasmid C); also called H: APFF G56A & L: NDH
B4: Fab VH1-46_IGHD6-6*01_IGHJ1*01 S102A/S103P/S104F/H111F S54A & L6_IGKJ1*01 S28N/S30D/S31H (Fab, V domains shown)
VH: B1 VH with S54A
VL: B3 VL
notes: Fab made in E. coli: VH on CH1 with His6 and Flag tags (Plasmid A), VL on kappa CL (Plasmid C); also called H: APFF S54A & L: NDH
B5: Fab VH1-46_IGHD6-6*01_IGHJ1*01 S102A/S103P/S104F/H111F & L6_IGKJ1*01 S28N/S30D/S31H N53H (Fab, V domains shown)
VH: B1 VH
VL: B3 VL with N53H
notes: Fab made in E. coli: VH on CH1 with His6 and Flag tags (Plasmid A), VL on kappa CL (Plasmid C); also called H: APFF & L: NDH N53H
B6: Fab VH1-46_IGHD6-6*01_IGHJ1*01 S102A/S103P/S104F/H111F & L6_IGKJ1*01 S28N/S30D/S31H S52T (Fab, V domains shown)
VH: B1 VH
VL: B3 VL with S52T
notes: Fab made in E. coli: VH on CH1 with His6 and Flag tags (Plasmid A), VL on kappa CL (Plasmid C); also called H: APFF & L: NDH S52T
B7: Fab VH1-46_IGHD6-6*01_IGHJ1*01 S102A/S103P/S104F/H111F & L6_IGKJ1*01 S28N/S30D/S31H S52L (Fab, V domains shown)
VH: B1 VH
VL: B3 VL with S52L
notes: Fab made in E. coli: VH on CH1 with His6 and Flag tags (Plasmid A), VL on kappa CL (Plasmid C); also called H: APFF & L: NDH S52L
B8: Fab VH5-51_IGHD5-18*01>3_IGHJ4*01 G100K/G104T G24T/S28R/G35V & V3-4_IGLJ1*01 V91L/S96P (Fab, V domains shown)
VH: EVQLVQSGAEVKKPGESLKISCKTSGYRFTSYWIVWVRQMPGKGLEWMGIIYPGDSDTRYSPSFQGQVTISADKSISTAYLQWSSLKASDTAMYYCARRKYSYTYDYFDYWGQGTLVTVSS
VL: QTVVTQEPSFSVSPGGTVTLTCGLSSGSVSTSYYPSWYQQTPGQAPRTLIYSTNTRSSGVPDRFSGSILGNKAALTITGAQADDESDYYCLLYMGPGISYVFGTGTKVTVL
notes: Fab made in E. coli: VH on CH1 with His6 and Flag tags (Plasmid A), VL on lambda CL (Plasmid E); also called H: KT TRV & L: LP
B9: Fab VH5-51_IGHD5-18*01>3_IGHJ4*01 G100K/G104T G24T/S28R/G35V & V3-4_IGLJ1*01 V91L/S96P S52M (Fab, V domains shown)
VH: B8 VH
VL: B8 VL with S52M
notes: Fab made in E. coli: VH on CH1 with His6 and Flag tags (Plasmid A), VL on lambda CL (Plasmid E); also called H: KT TRV & L: LP S52M
B10: Fab VH5-51_IGHD5-18*01>3_IGHJ4*01 G100K/G104T G24T/S28R/G35V & V3-4_IGLJ1*01 V91L/S96P S52G (Fab, V domains shown)
VH: B8 VH
VL: B8 VL with S52G
notes: Fab made in E. coli: VH on CH1 with His6 and Flag tags (Plasmid A), VL on lambda CL (Plasmid E); also called H: KT TRV & L: LP S52G

Target: T1, recombinant human DLL4 (Cat# 1506-D4/CF, R&D Systems) (human, UniProt Q9NR61 27-529)
T1 construct: Bought protein; also called hDLL4; rHuman DLL4
Experiment: ELISA, DLL4 coated, Fab 100 nM

Row | Binder | ELISA absorbance at 450 nm
1 | B1 | 0.072 A450
2 | B2 | 0.338 A450
3 | B3 | 0.453 A450
4 | B4 | 0.213 A450

Target: T1, recombinant human DLL4 (Cat# …)
Experiment: ELISA, DLL4 coated, Fab 25 nM
Method in brief: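 A450 read-out after 2 min TMB development and acid stop. Fab, serially diluted in 1% BSA/PBS, bound in triplicate for 1 h at RT on plates blocked with 1% BSA/TBST; detection via HRP goat anti-human kappa or lambda (1:1000, 30 min RT).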

Row | Binder | ELISA absorbance at 450 nm
5 | B5 | 0.238 A450
6 | B6 | 0.323 A450
7 | B7 | 0.335 A450
8 | B8 | 0.58 A450
9 | B9 | 0.59 A450
10 | B10 | 0.9 A450

Target: T1, recombinant human DLL4 (Cat# …)
Experiment: ELISA, DLL4 coated, Fab 11.11 nM

Row | Binder | ELISA absorbance at 450 nm
11 | B8 | 0.07 A450
12 | B9 | 0.06 A450
13 | B10 | 0.17 A450

Target: T1, recombinant human DLL4 (Cat# …)
Experiment: ELISA, DLL4 coated, Fab 0.14 nM
Protocol: (§1) The plate was blocked by adding 1% BSA in Tris-buffered Saline Tween (TBST) and incubating for 1 hour at room temperature followed by washing 2 times with 150 μl TBST. A Fab antibody was serially diluted in 1% BSA in PBS. A 50 μl aliquot of each serial dilution was added, in triplicate, to each well and the plate was incubated for 1 hour at room temperature followed by washing 2 times with TBST. 50 μl of either goat anti-human kappa HRP conjugated secondary antibody (Cat # A7164-1 mL, Sigma-Aldrich) or goat anti-human lambda HRP conjugated secondary antibody (Cat # L1645-1 ml, Sigma-Aldrich), diluted 1:1000 in 1% BSA in PBS, was added to each well and the plate was incubated for 30 minutes at room temperature followed by washing 3 times with 200 μl TBST. Finally, 50 μl TMB one-component reagent (Cat # TMBW-1000-01, BioFax) was added and allowed to develop for 2 minutes at room temperature. The reaction was immediately halted by the addition of 50 μl 0.5M H₂SO₄ and the absorbance at 450 nm was measured using an ELISA plate reader.

Row | Binder | ELISA absorbance at 450 nm
14 | B8 | 0.03 A450
15 | B9 | 0.02 A450
16 | B10 | 0.02 A450

Target: T1, recombinant human DLL4 (Cat# …)
Experiment: ELISA, DLL4 coated, Fab 33.33 nM
Protocol: as §1

Row | Binder | ELISA absorbance at 450 nm
17 | B8 | 0.19 A450
18 | B9 | 0.12 A450
19 | B10 | 0.35 A450

Target: T1, recombinant human DLL4 (Cat# …)
Experiment: ELISA, DLL4 coated, Fab 100 nM
Remark: another data set of the same source
Protocol: as §1

Row | Binder | ELISA absorbance at 450 nm
20 | B5 | 0.608 A450
21 | B6 | 0.653 A450
22 | B7 | 0.791 A450
23 | B8 | 0.34 A450
24 | B9 | 0.24 A450
25 | B10 | 0.69 A450

Target: T1, recombinant human DLL4 (Cat# …)
Experiment: ELISA, DLL4 coated, Fab 50 nM
Protocol: as §1

Row | Binder | ELISA absorbance at 450 nm
26 | B1 | 0.06 A450
27 | B2 | 0.301 A450
28 | B3 | 0.366 A450
29 | B4 | 0.154 A450

Target: T1, recombinant human DLL4 (Cat# …)
Experiment: ELISA, DLL4 coated, Fab 3.125 nM
Protocol: as §1

Row | Binder | ELISA absorbance at 450 nm
30 | B5 | 0.089 A450
31 | B6 | 0.099 A450
32 | B7 | 0.095 A450

Target: T1, recombinant human DLL4 (Cat# …)
Experiment: ELISA, DLL4 coated, Fab 50 nM
Remark: another data set of the same source
Protocol: (§2) In this example, an ELISA binding assay was used to assess the dose-dependent binding of Fab antibodies to recombinant human DLL4 and recombinant mouse DLL4.
as §1

Row | Binder | ELISA absorbance at 450 nm
33 | B8 | 0.81 A450
34 | B9 | 0.8 A450
35 | B10 | 1.02 A450

Target: T1, recombinant human DLL4 (Cat# …)
Experiment: ELISA, DLL4 coated, Fab 3.70 nM
Protocol: as §1

Row | Binder | ELISA absorbance at 450 nm
36 | B8 | 0.03 A450
37 | B9 | 0.03 A450
38 | B10 | 0.06 A450

Target: T1, recombinant human DLL4 (Cat# …)
Experiment: ELISA, DLL4 coated, Fab 12.5 nM
Protocol: as §2, §1

Row | Binder | ELISA absorbance at 450 nm
39 | B8 | 0.45 A450
40 | B9 | 0.41 A450
41 | B10 | 0.63 A450

Target: T1, recombinant human DLL4 (Cat# …)
Experiment: ELISA, DLL4 coated, Fab 0.41 nM
Protocol: as §1

Row | Binder | ELISA absorbance at 450 nm
42 | B8 | 0.02 A450
43 | B9 | 0.03 A450
44 | B10 | 0.01 A450

Target: T1, recombinant human DLL4 (Cat# …)
Experiment: SPR (ProteOn), hDLL4 amine-coupled on chip
Protocol: In this example, the binding affinities of selected anti-DLL4 Fabs to recombinant human DLL4 (hDLL4, Cat# 1506-D4/CF, R&D Systems) were analyzed using Surface Plasmon Resonance (SPR) (Biosensor Tools, Salt Lake City, Utah). The Fabs analyzed include germline-derived antibodies and germline-modified DLL4 antibodies. Recombinant hDLL4 was immobilized on a SPR chip using amine coupling at three different surface densities. The Fabs were serially diluted 3-fold, with an initial concentration of 1 μM. Binding studies were run on a ProteOn system using a GLM sensor chip in 10 mM HEPES, pH 7.4, 150 mM NaCl, 0.01% Tween-20, and 0.1 mg/ml BSA at 25° C. The response data from each surface was globally fit to determine the binding constants.

Row | Binder | Kd | koff | kon
45 | B8 | 3.3 nM | 0.036 s⁻¹ | 1.1e+07 M⁻¹ s⁻¹
46 | B10 | 5 nM | 0.0147 s⁻¹ | 2.96e+06 M⁻¹ s⁻¹

Target: T1, recombinant human DLL4 (Cat# …)
Experiment: ELISA, DLL4 coated, Fab 1.23 nM
Protocol: as §1

Row | Binder | ELISA absorbance at 450 nm
47 | B8 | 0.03 A450
48 | B9 | 0.03 A450
49 | B10 | 0.03 A450

Target: T1, recombinant human DLL4 (Cat# …)
Experiment: ELISA, DLL4 coated, Fab 6.25 nM
Protocol: as §1

Row | Binder | ELISA absorbance at 450 nm
50 | B5 | 0.109 A450
51 | B6 | 0.13 A450
52 | B7 | 0.142 A450

Target: T1, recombinant human DLL4 (Cat# …)
Experiment: ELISA, DLL4 coated, Fab 100 nM
Remark: another data set of the same source
Protocol: as §2, §1

Row | Binder | ELISA absorbance at 450 nm
53 | B8 | 1 A450
54 | B9 | 1.01 A450
55 | B10 | 1.14 A450

Target: T1, recombinant human DLL4 (Cat# …)
Experiment: ELISA, DLL4 coated, Fab 50 nM
Remark: another data set of the same source
Protocol: as §1

Row | Binder | ELISA absorbance at 450 nm
56 | B5 | 0.416 A450
57 | B6 | 0.49 A450
58 | B7 | 0.546 A450

Target: T1, recombinant human DLL4 (Cat# …)
Experiment: ELISA, DLL4 coated, Fab 75 nM

Row | Binder | ELISA absorbance at 450 nm
59 | B1 | 0.072 A450
60 | B2 | 0.399 A450
61 | B3 | 0.543 A450
62 | B4 | 0.212 A450

Target: T1, recombinant human DLL4 (Cat# …)
Experiment: ELISA, DLL4 coated, Fab 12.5 nM
Remark: another data set of the same source
Protocol: as §1

Row | Binder | ELISA absorbance at 450 nm
63 | B5 | 0.167 A450
64 | B6 | 0.215 A450
65 | B7 | 0.215 A450
